Consider two molecules from patent US20200339694A1 (CYTOMX THERAPEUTICS, published 2020).

This experiment concerns the target T1, Av1 antibody.
T1 construct: also called parental AV1 antibody; anti-IL6R antibody
Description: FACS of the peptide displayed on cells.

T1 sequence (heavy, as listed by the source, chain 1 of 2): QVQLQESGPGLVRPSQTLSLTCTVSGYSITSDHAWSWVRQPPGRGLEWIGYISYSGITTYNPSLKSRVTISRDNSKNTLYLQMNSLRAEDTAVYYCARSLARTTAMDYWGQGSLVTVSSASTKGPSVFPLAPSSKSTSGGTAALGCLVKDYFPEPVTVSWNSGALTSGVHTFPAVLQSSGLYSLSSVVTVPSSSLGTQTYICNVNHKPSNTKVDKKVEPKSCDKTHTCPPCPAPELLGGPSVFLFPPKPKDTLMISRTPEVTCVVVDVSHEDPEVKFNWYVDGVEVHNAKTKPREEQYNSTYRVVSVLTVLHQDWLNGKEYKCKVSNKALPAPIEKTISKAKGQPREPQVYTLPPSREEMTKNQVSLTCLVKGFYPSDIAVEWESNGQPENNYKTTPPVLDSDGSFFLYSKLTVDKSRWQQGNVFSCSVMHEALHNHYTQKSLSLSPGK
T1 sequence (light, as listed by the source, chain 2 of 2): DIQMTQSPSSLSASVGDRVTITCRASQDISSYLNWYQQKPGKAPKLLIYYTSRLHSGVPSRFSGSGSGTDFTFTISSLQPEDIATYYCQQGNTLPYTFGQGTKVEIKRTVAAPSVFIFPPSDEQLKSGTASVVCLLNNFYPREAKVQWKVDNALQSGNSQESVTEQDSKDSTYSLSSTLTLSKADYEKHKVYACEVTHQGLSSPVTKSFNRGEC

Consider YRSCNWNYVSIFLDC (also called 4278; parental peptide) [Peptide 1 (SEQ ID NO: 33)], for which the binding result was “binds”.

Take PGAFDIPFPAHWVPNT (also called 4280; parental peptide) [Peptide 2 (SEQ ID NO: 34)]: the binding result is “binds”.
